In patent US20140113831A1 (published 2014):

Molecular target: T1, human PDGFRb (human, UniProt P09619 33-531)
T1 chain: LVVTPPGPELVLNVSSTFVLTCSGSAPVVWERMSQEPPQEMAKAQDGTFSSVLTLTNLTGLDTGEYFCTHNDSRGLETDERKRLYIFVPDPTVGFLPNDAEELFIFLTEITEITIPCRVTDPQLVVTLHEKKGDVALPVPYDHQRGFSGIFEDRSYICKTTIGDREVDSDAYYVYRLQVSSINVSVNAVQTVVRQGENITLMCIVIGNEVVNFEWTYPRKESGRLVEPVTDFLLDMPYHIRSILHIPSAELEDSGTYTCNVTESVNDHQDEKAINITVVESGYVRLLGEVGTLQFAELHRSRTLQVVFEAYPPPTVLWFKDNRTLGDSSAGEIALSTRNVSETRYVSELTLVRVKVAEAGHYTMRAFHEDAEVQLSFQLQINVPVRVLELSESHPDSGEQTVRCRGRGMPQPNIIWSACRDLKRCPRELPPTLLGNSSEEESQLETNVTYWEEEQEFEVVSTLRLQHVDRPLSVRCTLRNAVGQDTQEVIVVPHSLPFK
Assay: solution binding affinity (35S Met labeled)

Kd: 0.03 nM
B1: scFv XB2202-A4 (scFv, V domains shown)
VH: QVQLVQSGAEVKKPGSSVRVSCKASGGTFSRHAISWVRQAPGQGLEWIGGILPILKTPNYAQRFQGRVTINADESTSTVYMEMSSLRSEDTAVYYCATHGGDRSYWGQGTLVTVSS
VL: DVVMTQSPSSLSASVGDRVTITCQASQDISNWLNWYQQKPGKAPKLLIYEASNLETGVPSRFSGSGSGTDFTFTISSLQPEDIATYYCQQYNNVLRTFGQGTKVEIK
